In the supplement of paper PMC10126150:
± gives the standard deviation of the averaged measurements.

Tested on: ATP
Test: switch fluorescence ratio, 500 uM ATP over buffer (Cy3 cluster intensity, sum of 5 cycles each) (fold (ratio)); higher = stronger signal-on switching upon ATP binding; sequences stand for … in TCGTCGGCAGCGTCAGATGTGTATAAGAGACAGTTTTTTTTTTTTTTTTTTTTTTTTT…TC
Conditions: aptamer strand: ATP DNA aptamer (quencher-CACCTGGGGGAGTATTGCGGAGGAAGG + anchor), 100 nM annealed; ATP concentration: 500 uM
Summary of the method: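 For every switch-domain sequence, the fluorescence ratio is the mean of per-cluster values, each being summed target-cycle Cy3 intensity over summed buffer-cycle Cy3 intensity. Clusters outside 100-1000 RFU were excluded. On a modified Illumina MiSeq flow-cell, the Cy3-labelled switching-strand clusters were annealed to 100 nM quencher-labelled ATP aptamer, imaged in selection buffer and then after 15 min with 500 uM ATP at 22 °C. Five such cycles were run, with NaOH stripping and re-annealing between them.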
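Also: ATP exposure 15 min at 22 °C before imaging.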

Sequence	switch fluorescence ratio
CTTGTTGTTT	1.03 ± 0.15
CTTGTTTCTC	0.971 ± 0.028
CTTTACTCAC	1.27 ± 0.019
CTTTAGAATC	0.941 ± 0.021
CTTTAGATGT	0.98 ± 0.034
CTTTAGTCAG	1.01 ± 0.016
CTTTATATGG	0.96 ± 0.046
CTTTATGGGA	0.988 ± 0.031
CTTTCGAGAG	1 ± 0.025
CTTTCGGGGG	1.14 ± 0.2
CTTTGACGGG	0.989 ± 0.013
CTTTGATTAG	0.9838 ± 0.0061
CTTTGCTTTT	0.968 ± 0.023
CTTTGGAAAT	0.9997 ± 0.0023
CTTTGGAGTG	1.23 ± 0.38
CTTTTAGTAG	0.974 ± 0.015
CTTTTATAGT	0.984 ± 0.02
CTTTTTAACA	0.9742 ± 0.0062
CTTTTTGGGG	0.981 ± 0.029
GAAAAAAGTA	1.01 ± 0.031
GAAAAAAGTG	0.994 ± 0.047
GAAAAAATTT	1.031 ± 0.0019
GAAAAAGAGA	0.9736 ± 0.0016
GAAAAAGCGT	1.07 ± 0.03
GAAAAATTAC	1.49 ± 0.75

Sequence	switch fluorescence ratio
GAAAAGGGTT	0.978 ± 0.032
GAAAAGTTTT	0.969 ± 0.018
GAAAATAACG	1.11 ± 0.15
GAAAATTGGT	0.997 ± 0.023
GAAACTGCTG	1.01 ± 0.029
GAAAGAAAAA	1.09 ± 0.043
GAAAGAGTGA	1.01 ± 0.016
GAAAGGCGGG	0.985 ± 0.0041
GAAAGGGTGT	1.03 ± 0.026
GAAAGGTCGG	1.21 ± 0.27
GAAAGTAAGC	0.993 ± 0.012
GAAAGTAATT	0.996 ± 0.051
GAAAGTAGGA	1.02 ± 0.029
GAAATACTTT	1.03 ± 0.014
GAAATCAGCA	1.03 ± 0.023
GAAATCGGTG	0.995 ± 0.036
GAAATGTACG	1.04 ± 0.021
GAAATGTAGG	0.995 ± 0.034
GAAATTCGGG	0.978 ± 0.025
GAAATTCTAT	0.985 ± 0.033
GAAATTGATG	0.983 ± 0.017
GAAATTTGG	1.01 ± 0.061
GAAATTTTTT	1 ± 0.034
GAACAAAGGG	0.988 ± 0.017
GAACAATGGG	0.977 ± 0.03

Sequence	switch fluorescence ratio
GAACACGGTA	1.204 ± 0.0023
GAACATCGGC	1.036 ± 0.0022
GAACCGGGTT	0.9987 ± 0.0079
GAACCGTAAA	1.128 ± 0.0073
GAACCTCGTG	1.03 ± 0.035
GAACGATGTT	0.9787 ± 0.0032
GAACGCCGGC	0.939 ± 0.034
GAACGGTATG	1.02 ± 0.051
GAACGGTGGG	0.976 ± 0.019
GAACGTCTGC	1.08 ± 0.011
GAACGTGGGT	0.987 ± 0.052
GAACGTTTGG	1.04 ± 0.074
GAACTAGGGC	1.02 ± 0.1
GAACTCGGCT	0.959 ± 0.12
GAACTCTTGT	1.05 ± 0.096
GAACTGCGGA	1.01 ± 0.019
GAAGAAAACA	0.955 ± 0.089
GAAGAACGGG	1.006 ± 0.0036
GAAGATAGGG	0.998 ± 0.011
GAAGATGAAA	0.984 ± 0.017
GAAGATTTGG	0.981 ± 0.04
GAAGCAACCG	1.384 ± 0.01
GAAGCATTTT	1.07 ± 0.045
GAAGCGACTC	2.42 ± 0.03
GAAGCGGTGG	0.954 ± 0.09

Sequence	switch fluorescence ratio
GAAGCTTATA	1.251 ± 0.0019
GAAGGAAGAG	1.03 ± 0.025
GAAGGAAGTT	1.01 ± 0.041
GAAGGACGGG	1 ± 0.025
GAAGGAGGGC	0.995 ± 0.085
GAAGGCACGG	1.04 ± 0.047
GAAGGCACTA	1.03 ± 0.045
GAAGGCATGG	1.03 ± 0.015
GAAGGCCATG	1.016 ± 0.0075
GAAGGCCTAG	0.9763 ± 0.0042
GAAGGCCTTG	1.01 ± 0.025
GAAGGCTCTG	0.9922 ± 0.0071
GAAGGGAGTG	0.986 ± 0.084
GAAGGGATGG	1.08 ± 0.15
GAAGGGATTG	1.02 ± 0.041
GAAGGGCAAG	1.02 ± 0.038
GAAGGGCTGG	0.972 ± 0.022
GAAGGGGAAT	1.003 ± 0.0052
GAAGGGGTGA	1.03 ± 0.053
GAAGGGTCTG	0.969 ± 0.012
GAAGGTGAGG	1.01 ± 0.019
GAAGGTGCGA	1.15 ± 0.052
GAAGGTGTTG	1.036 ± 0.0084
GAAGGTTATA	1 ± 0.047
GAAGGTTCAT	0.961 ± 0.022
